{"source": "paper PMC10268282", "about": "“Activator-induced conformational changes regulate division-associated peptidoglycan amidases” (Proceedings of the National Academy of Sciences of the …, 2023)", "binders": {"B1": {"name": "EnvC LytM domain from Citrobacter rodentium (domain or fragment)", "chain": "MSRTGGLGSPRGQAYWPVRGPTLHRYGEQLQGELRWKGMVIGASEGTEVKAIADGRVILADWLQGYGLVVVVEHGKGDMSLYGYNQSALVSVGTQVRAGQPIALVGSSGGQGRPSLYFEIRRQGQAVNPQPWLGR", "notes": "EnvC, Citrobacter rodentium, LytM domain; Construct limits and tags in SI Appendix"}}, "target": "T1, AmiB hydrolytic domain from Citrobacter rodentium (Citrobacter rodentium, UniProt A0A482PQR2 190-422)", "T1 construct": "AmiB peptidoglycan amidase, Citrobacter rodentium, hydrolytic (enzymatic) domain, cloned without the N-terminal AmiN domain; Construct limits and tags in SI Appendix; also called AmiB enzymatic domain", "T1 sequence": "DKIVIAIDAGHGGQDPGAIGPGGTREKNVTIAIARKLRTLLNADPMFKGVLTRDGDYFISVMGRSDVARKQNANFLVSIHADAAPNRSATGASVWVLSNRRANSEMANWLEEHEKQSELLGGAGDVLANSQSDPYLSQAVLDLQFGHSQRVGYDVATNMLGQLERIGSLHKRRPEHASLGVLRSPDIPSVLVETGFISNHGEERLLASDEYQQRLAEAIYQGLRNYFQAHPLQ", "assay": "crystal structure; X-ray crystallography, 3.4 Å; molecular replacement with Alphafold models", "conditions": "both partners purified"}
{"binder": "B1", "values": [{"measurement": "binding result", "value": "binds"}]}
